Test results as given in PMC8819685.

Target: Human plasminogen (human)
Sequence (P00747 20-810): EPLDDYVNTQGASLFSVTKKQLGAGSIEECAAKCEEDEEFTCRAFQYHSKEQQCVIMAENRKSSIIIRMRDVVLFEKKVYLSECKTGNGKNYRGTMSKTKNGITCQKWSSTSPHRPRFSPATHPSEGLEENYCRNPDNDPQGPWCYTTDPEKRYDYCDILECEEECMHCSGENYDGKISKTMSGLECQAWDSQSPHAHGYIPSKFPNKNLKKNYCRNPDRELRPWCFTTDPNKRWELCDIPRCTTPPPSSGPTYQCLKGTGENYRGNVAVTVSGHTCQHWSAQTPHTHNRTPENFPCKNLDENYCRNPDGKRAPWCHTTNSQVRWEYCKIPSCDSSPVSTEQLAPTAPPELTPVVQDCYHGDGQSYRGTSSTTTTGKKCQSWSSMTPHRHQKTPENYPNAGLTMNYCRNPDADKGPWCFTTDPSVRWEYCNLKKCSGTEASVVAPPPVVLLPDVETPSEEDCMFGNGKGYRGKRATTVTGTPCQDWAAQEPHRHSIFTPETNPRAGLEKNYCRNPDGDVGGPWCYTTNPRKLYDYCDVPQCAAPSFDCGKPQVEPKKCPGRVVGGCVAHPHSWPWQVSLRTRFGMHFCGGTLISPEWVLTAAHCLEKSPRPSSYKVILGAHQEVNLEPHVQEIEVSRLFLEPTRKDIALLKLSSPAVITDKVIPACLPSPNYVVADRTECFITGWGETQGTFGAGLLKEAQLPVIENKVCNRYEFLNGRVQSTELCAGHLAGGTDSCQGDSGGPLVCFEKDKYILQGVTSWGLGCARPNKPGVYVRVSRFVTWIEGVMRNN

plasminogen activation on fibrin plates: fibrinolytic zone of the mixture of EPF3 and plasminogen against that of EPF3 alone (3, 6, 18 h, 37°C): 20.2%
B1: EPF3, fibrinolytic protein from Pheretima vulgaris (enzyme)
chain: ILGGTEARVGEIPWQLSQQRGGSHSCGASLLRPGSALSAAHCVDGAPPADVRIVAGLHLRSDESTAVASLAESFLIHPSYNVGEGTFPNDIAIIYLLTNINSAPVENIDFALLPPDNVEQFVGFTCVLSGWGRTSASNVLPDALQKVSIDVITTAECDSRMAAVAGADCTDAHIAVFDPALQKGSCNGDSGGPMNCPLSGEFVVAGVTSWGISGGGACLPEYPSVYTRTGFYRQWIIDNIR
